Assay [1] concerns the target T1, Recombinant human VEGFR1-Fc (R&D Systems) (human, UniProt P17948 27-687, limits assumed).
T1 construct: bought; not shown: Fc part of the bought fusion, not described
Kind of assay: biochemical ligand blocking assay; ligand and receptor form not given. A digest of the protocol:
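Antibodies were tested in a biochemical electro-chemiluminescence ligand blocking assay. Recombinant VEGFR1-Fc was captured on Protein A/G-coated MSD plates and pre-incubated for 30 minutes with half-log antibody dilutions. Biotinylated ligand was then added and detected with Sulfo-tagged streptavidin on an MSD imager. IC50 was calculated from the readings.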

A further assay concerns the target T2, ISLR (BC022478) (human, UniProt O14498 19-428).
T2 construct: whole, on cells; also called Immunoglobulin superfamily containing leucine-rich repeat protein
T2 sequence (looked up): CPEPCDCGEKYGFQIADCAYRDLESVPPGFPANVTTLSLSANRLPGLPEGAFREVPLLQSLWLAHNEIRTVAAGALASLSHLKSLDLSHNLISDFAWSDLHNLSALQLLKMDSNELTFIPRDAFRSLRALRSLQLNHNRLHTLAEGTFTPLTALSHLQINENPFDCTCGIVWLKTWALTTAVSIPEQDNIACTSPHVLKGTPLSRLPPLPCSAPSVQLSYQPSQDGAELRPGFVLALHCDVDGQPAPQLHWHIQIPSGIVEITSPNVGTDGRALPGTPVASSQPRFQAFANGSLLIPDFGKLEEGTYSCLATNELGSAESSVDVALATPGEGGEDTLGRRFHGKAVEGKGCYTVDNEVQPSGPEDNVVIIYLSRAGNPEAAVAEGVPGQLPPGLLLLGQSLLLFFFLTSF
Briefly: Retrogenix cell microarray, fixed HEK293 cells, 2 ug/mL antibody. Here is the method:
(§1) This human cell microarray methodology has been previously described in the literature (Freeth, J. et al, SLAS Discovery, 25 (2), 223-230, 2020). Primary screening was performed on slides arrayed with fixed HEK293 cells with each spot of HEK293 cells expressing either a unique protein from the cell surface-ome, a cell surface tethered human secreted protein, or a heterodimeric human cell surface receptor. In total, 5,528 unique gene products were represented in this primary screen (4,103 human plasma membrane proteins (+some untethered secreted proteins)+1,425 cell surface tethered human secreted proteins). Briefly, slides containing fixed transfected HEK293 cells were overlaid with a solution of test antibody (2 μg/mL), incubated, and washed. Binding was assessed using AlexaFluor647-conjugated anti-human IgG Fc detection antibody and fluorescence quantitation on ImageQuant. […] Located in the ER, off-target binding to CRELD2 was of less concern. Nectin-1, FGFR2, and ISLR, on the other hand, display broad tissue expression profiles. Cross-reactivity to these proteins is undesirable because binding to these targets might have a significant impact on pharmacokinetic and biodistribution profiles of the molecules. This off-target binding was subsequently confirmed by flow cytometry on live HEK293 cells transiently expressing these ‘off-target’ proteins identified in the primary screen.

Assay [2] deals with T3, NECTIN1 Isoform Alpha (NM_203285.1) (human, UniProt Q15223-2 31-458).
T3 construct: whole, on cells
T3 sequence (looked up): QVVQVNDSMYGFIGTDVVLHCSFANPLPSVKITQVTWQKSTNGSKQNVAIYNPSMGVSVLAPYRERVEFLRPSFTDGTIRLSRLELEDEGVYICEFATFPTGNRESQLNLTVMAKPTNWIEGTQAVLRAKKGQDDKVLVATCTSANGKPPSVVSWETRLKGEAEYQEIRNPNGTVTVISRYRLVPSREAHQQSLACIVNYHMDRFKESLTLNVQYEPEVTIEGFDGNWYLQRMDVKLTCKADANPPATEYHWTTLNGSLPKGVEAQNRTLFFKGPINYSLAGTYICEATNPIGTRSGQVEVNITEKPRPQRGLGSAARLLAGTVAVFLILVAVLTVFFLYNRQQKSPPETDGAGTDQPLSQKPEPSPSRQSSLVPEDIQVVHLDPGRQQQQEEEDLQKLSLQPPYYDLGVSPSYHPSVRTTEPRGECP
Described as above. Here is the method:
as §1

Assay [3] deals with T4, rat VEGFR1 (soluble antigen of the KinExA and SPR affinity assays) (rat, UniProt P53767 23-758, limits assumed).
T4 sequence (looked up): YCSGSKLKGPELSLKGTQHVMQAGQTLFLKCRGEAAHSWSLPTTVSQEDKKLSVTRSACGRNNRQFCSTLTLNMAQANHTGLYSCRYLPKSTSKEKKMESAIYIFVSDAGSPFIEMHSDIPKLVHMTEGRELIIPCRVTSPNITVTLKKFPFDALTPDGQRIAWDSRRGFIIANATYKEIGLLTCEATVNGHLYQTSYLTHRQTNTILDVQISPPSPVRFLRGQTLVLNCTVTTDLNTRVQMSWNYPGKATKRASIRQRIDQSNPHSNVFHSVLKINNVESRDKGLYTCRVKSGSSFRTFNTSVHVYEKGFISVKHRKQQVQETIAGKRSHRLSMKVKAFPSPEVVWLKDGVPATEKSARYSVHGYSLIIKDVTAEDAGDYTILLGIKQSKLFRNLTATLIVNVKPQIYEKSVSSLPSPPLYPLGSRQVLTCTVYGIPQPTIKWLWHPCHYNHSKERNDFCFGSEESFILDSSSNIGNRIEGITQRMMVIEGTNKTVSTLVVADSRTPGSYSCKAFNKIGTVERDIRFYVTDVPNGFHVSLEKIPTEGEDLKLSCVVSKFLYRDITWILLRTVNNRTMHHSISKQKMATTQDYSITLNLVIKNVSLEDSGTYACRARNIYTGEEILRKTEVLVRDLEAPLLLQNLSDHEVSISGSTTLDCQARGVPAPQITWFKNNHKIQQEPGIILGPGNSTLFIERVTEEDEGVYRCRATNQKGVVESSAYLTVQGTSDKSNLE
Kind of assay: SPR. In general terms: SPR reads the build-up and loss of mass on a sensor chip optically.

T1 sequence (P17948 27-687 limits assumed): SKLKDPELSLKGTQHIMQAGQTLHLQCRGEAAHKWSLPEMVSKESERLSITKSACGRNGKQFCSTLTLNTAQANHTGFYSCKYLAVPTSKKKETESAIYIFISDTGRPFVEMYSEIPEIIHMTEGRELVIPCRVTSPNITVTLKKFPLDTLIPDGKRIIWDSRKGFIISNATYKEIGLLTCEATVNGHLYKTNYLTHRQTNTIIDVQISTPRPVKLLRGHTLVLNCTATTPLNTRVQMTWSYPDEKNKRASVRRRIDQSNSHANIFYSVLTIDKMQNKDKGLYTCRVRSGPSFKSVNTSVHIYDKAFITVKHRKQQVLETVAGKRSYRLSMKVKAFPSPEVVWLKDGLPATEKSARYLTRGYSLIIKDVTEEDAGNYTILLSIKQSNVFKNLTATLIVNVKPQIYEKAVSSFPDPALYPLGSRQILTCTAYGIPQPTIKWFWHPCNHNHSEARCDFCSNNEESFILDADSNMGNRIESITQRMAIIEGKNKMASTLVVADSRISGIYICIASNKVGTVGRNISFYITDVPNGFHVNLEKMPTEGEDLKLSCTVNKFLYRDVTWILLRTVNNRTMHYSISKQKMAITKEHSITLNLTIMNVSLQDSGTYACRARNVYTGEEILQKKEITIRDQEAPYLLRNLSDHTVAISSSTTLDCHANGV

B1: VGFB54 (antibody, human IgG1, lambda, L234A L235A, V domains shown)
VH: EVQLLESGGGSVQPGGSLRLSCTASGFNFEDYGMNWVRQAPGKGLDWVSSINRNGDISTYHVDSVKGRFTISRDNSKNTLYLQMNSLRAEDTAIYYCTKNHDYHGMDVWGQGTTVTVSS
VL: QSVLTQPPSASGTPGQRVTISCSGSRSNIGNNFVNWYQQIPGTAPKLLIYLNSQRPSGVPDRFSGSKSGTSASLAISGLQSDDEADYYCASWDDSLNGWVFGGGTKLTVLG
notes: human IgG1 (L234A/L235A/D265S), lambda, 2H:2L; from OmniChicken
As for B1, the IC50 in assay [1] is 89.4 pM.

B2: VGFB78 (antibody, human IgG1, lambda, L234A L235A, V domains shown)
VH: EVQLLESGGGLVQPGGSLRLSCAASSFTFYNYDMTWVRQAPGKGLEWVAGIGTSGTDMYYADSVKGRFTISRDNSKNTLYLQMNSLRAEDTAIYYCAKDYYYYGMDVWGLGTTVTVSS
VL: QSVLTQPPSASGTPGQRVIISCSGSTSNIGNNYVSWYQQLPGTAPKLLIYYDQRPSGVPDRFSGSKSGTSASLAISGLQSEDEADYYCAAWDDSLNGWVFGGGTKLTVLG
notes: human IgG1 (L234A/L235A/D265S)
As to B2, the binding result in the assay with ISLR (BC022478) is reported as “binds”.

B3: VGFB71 (antibody, human IgG1, lambda, L234A L235A, V domains shown)
VH: EVQLLESGGGLVQPGGSLRLSCEASGFIFRDYNMNWVRQAPGKGLEWVSIITNDGSSTAYSDSVKGRFTISRDNSKNSLYLQMNSLRAEDTAIYYCVKVYYGMDDWGQGTTVTVSS
VL: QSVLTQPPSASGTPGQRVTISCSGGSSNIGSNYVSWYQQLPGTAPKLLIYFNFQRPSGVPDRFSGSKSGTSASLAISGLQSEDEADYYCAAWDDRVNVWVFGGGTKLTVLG
notes: as for B2
On to B3, for which the binding result in assay [2] is “binds”.

B4: VGFB82 (antibody, human IgG1, lambda, L234A L235A, V domains shown)
VH: EVQLLESGGGLVQPGGSLRLSCEASGFDFSTYAMNWVRQAPGKGLEWVATINSEGTITSHAPAVKGRFTISRDNSKNTAYVQMNSLRAEDSAVYYCSSTTGTTHGMDVWGRGTTVTVSS
VL: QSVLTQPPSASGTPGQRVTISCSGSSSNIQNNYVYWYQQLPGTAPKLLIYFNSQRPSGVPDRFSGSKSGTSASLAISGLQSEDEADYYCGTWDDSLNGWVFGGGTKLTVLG
notes: as for B2
The molecule B4 had a Kd in assay [3] of 600 to 1000 pM.

One may read the IC50 as the point on the concentration scale where inhibition reaches its midpoint. The term Kd denotes the equilibrium constant for the complex coming apart. Read a high Kd as lower affinity.
